The source of these data is patent publication US20240270866A1 (Alector, published 2024).

In experiment [1] the target is T1, biotinylated human SIRPA (monomer) (human, UniProt P78324 31-373, limits assumed, biotinylated).
T1 construct: monomer made by IdeS cleavage of a SIRPA Fc fusion; also called recombinant human SIRPA
In words: MSD-SET, Fab, equilibrium.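 Note: solution equilibrium titration, free antigen captured on antibody-coated MSD plates and detected by electrochemiluminescence with labeled streptavidin, percent free antigen versus titrated antibody fit to quadratic model for KD.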
Method: Antibodies (20 nM in PBS) were coated onto standard bind MSD-ECL plates overnight at 4° C. or at room temperature for 30 min. Plates were then blocked with 1% BSA for 30 min with shaking at 700 rpm, followed by three washes with wash buffer (PBSF+0.05% Tween 20). SET samples were applied and incubated on the plates for 150s with shaking at 700 rpm followed by one wash. Antigen captured on a plate was detected with 250 ng/ml sulfotag-labeled streptavidin in PBSF by incubation on the plate for 3 min. The plates were washed three times with wash buffer and then read on the MSD Sector Imager 2400 instrument using 1× Read Buffer T with surfactant. The percent free antigen was plotted as a function of titrated antibody in Prism and fit to a quadratic equation to extract the KD. To improve throughput, liquid handling robots were used throughout MSD-SET experiments, including SET sample preparation.

In experiment [2] the target is T2, human SIRPA Fc fusion antigen (human, UniProt P78324 31-373).
T2 construct: heterologous signal peptide; not shown: human IgG1 Fc
In words: ForteBio Fab monovalent.

The target of experiment [3] is T3, mouse SIRPA overexpressed on CHO cells (mouse, UniProt P97797 32-513).
T3 construct: also called CHO-muSIRPA
T3 sequence: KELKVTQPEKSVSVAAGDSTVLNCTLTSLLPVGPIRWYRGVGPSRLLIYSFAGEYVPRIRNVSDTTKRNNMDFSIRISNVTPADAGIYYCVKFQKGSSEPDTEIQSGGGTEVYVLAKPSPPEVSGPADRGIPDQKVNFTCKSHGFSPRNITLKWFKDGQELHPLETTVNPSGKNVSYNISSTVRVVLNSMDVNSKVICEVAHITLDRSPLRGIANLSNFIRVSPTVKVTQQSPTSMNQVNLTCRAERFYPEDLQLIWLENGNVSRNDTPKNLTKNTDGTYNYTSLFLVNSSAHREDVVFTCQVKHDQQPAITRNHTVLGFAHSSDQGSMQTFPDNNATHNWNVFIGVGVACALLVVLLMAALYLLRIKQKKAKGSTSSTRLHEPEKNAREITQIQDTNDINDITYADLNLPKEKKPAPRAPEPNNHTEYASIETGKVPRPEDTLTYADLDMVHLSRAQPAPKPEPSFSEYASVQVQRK
The experiment in a line: flow, CHO-muSIRPA.

For a further experiment, the target named is T4, Mouse SIRPA D1 Fc (mouse, UniProt P97797 32-150, limits assumed).
T4 sequence: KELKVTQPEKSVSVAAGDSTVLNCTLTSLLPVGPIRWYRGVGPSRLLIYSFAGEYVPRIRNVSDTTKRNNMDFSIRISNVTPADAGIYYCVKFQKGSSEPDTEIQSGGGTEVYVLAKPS
In words: ForteBio IgG avid.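 Note: antibody IgG captured on AHQ biosensors, then 100 nM Fc-fused SIRP antigen applied for 3 min, followed by 3 min buffer dissociation, kinetics fitted to a 1:1 model.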

The target in another experiment is T5, Human SIRPA D1 Fc (human, UniProt P78324 32-137).
T5 construct: not shown: human IgG1 Fc
In words: ForteBio IgG avid.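 Note: antibody IgG captured on AHQ biosensors, then 100 nM Fc-fused SIRP antigen applied for 3 min, followed by 3 min buffer dissociation, kinetics fitted to a 1:1 model.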

A further experiment has as its target Human SIRPb D1 Fc (human, UniProt O00241 30-148, limits assumed). The experiment in a line: ForteBio IgG avid.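 Note: antibody IgG captured on AHQ biosensors, then 100 nM Fc-fused SIRP antigen applied for 3 min, followed by 3 min buffer dissociation, kinetics fitted to a 1:1 model.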
The target of experiment [4] is T6, human SIRPA overexpressed on CHO cells (human, UniProt P78324 31-504).
T6 construct: also called CHO-huSIRPA
In words: flow, CHO-huSIRPA.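 Note: Anti-SIRPA antibodies applied at 1 µg/mL for 1 h on ice, binding read by flow cytometry using a PE-labelled secondary antibody.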
Method: (§1) Initial characterization of anti-SIRPA antibodies of the present disclosure involved determining their ability to bind cell lines overexpressing human or mouse SIRPA. Cells were harvested, plated at 10⁶/ml in a 96 well plate, washed, and incubated in 100 ul PBS containing 1 ug/ml Mab for 1 hour in ice. Cells were then washed twice and incubated in 100 ul PBS containing 5 ug/ml PE-conjugated secondary antibody for 30 minutes in ice. Cells were washed twice in cold PBS and acquired on a BD FACS Canto. Data analysis and calculation of mean fluorescence intensity (MFI) values or % positive cells was performed with FlowJo® (TreeStar) software version 10.0.7.

For experiment [5], the target named is T3, mouse SIRPA overexpressed on CHO cells. The experiment in a line: flow, CHO-muSIRPA. This is another data set of the same source.
Method: as §1

Sequence of Human SIRPb D1 Fc (O00241 30-148 limits assumed): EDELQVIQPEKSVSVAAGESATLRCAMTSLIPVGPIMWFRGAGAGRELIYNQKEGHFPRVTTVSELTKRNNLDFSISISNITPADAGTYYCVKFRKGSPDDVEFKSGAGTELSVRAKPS

B1: SA-19-73 Fab (Fab, V domains shown)
VH: QVQLVESGGGLVQPGGSLRLSCAASGFTFSSYAMHWVRQAPGKGLEWVAGILYDGSNKYYADSVKGRFTISRDNSKNTLYLQMNSLRAEDTAVYYCANSDTKYTLGFAFDIWGQGTMVTVSS
VL: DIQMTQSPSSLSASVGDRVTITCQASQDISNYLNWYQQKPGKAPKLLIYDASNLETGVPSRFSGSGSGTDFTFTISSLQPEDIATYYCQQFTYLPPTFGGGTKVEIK
notes: papain Fab
Regarding B1, the results for the Kd in experiment [1] and in experiment [2] were 0.18 nM and 1.62 nM, respectively.

B2: SA-19-75 Fab (Fab, V domains shown)
VH: QVQLVESGGGVVQPGRSLRLSCAASGFTFSSYGMHWVRQAPGKGLEWVAVIAYDGSNKLYADSVKGRFTISRDNSKNTLYLQMNSLRAEDTAVYYCALMRTKYTLGFAFDIWGQGTMVTVSS
VL: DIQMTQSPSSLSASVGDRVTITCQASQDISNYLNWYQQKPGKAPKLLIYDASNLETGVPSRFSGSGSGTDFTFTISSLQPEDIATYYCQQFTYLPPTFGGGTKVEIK
notes: papain Fab
Consider B2, for which the Kd amounted to 0.42 nM in experiment [1] and 1.67 nM in experiment [2].

B3: SA-19-80 Fab (Fab, V domains shown)
VH: EVQLLESGGGVVQPGRSLRLSCAASGFTFSSYGMHWVRQAPGKGLEWVAGILYDGSNKYYADSVKGRFTISRDNSKNTLYLQMDGLRAEDTAVYYCARHSVKYTLGFAFDIWGQGTMVTVSS
VL: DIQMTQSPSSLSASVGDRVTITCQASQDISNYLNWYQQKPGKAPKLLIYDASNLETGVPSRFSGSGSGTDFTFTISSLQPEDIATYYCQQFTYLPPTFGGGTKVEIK
notes: papain Fab
Turning to B3, the dissociation constant Kd worked out at 0.22 nM in experiment [1] and 2.26 nM in experiment [2].

B4: SA-19-82 Fab (Fab, V domains shown)
VH: QVQLVESGGGVVQPGRSLRLSCAASGFTFSSYAMHWVRQAPGKGLEWVAGILYDGSNKYYADSVKGRFTISRDNSKNTLYLQMNSLRAEDTAVYYCARHVLKYTLGFAFDIWGQGTMVTVSS
VL: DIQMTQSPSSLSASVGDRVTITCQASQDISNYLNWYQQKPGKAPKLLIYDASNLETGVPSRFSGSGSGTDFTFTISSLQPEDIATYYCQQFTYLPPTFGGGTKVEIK
notes: papain Fab
As to B4, the Kd in experiment [1] was determined as 0.27 nM; in experiment [2] it was 1.44 nM.

B5: SA-19-77 Fab (Fab, V domains shown)
VH: QVQLVESGGGVVQPGRSLRLSCAASGFTFSSYGMAWVRQAPGKGLEWVAQILYDGSNEYYADSVKGRFTISRDNSKNTLYLQMNSLRAEDTAVYYCARDLTKYTLGFAFDIWGQGTMVTVSS
VL: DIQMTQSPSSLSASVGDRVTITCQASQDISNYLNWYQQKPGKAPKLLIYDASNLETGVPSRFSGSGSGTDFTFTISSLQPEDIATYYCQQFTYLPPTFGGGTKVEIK
notes: papain Fab
Consider B5, for which the equilibrium dissociation constant (Kd) in experiment [1] was 1.2 nM; in experiment [2] it was 3.61 nM.

B6: SA-19-79 Fab (Fab, V domains shown)
VH: QVQLVESGGGVVQPGRSLRLSCAASGFTFSSYGMHWVRQAPGKGLEWVAVIAYDGSNKIYADSVKGRFTISRDNSKNTLYLQMNSLRAEDTAVYYCATTDTKYTLGFAFDIWGQGTMVTVSS
VL: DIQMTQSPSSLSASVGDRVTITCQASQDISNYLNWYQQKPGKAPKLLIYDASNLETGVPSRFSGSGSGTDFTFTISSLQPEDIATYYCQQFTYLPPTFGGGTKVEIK
notes: papain Fab
As for B6, the Kd was 0.14 nM in experiment [1] and 0.689 nM in experiment [2].

B7: SA-19-78 Fab (Fab, V domains shown)
VH: QVQLVESGGGVVQPGRSLRLSCAASGFTFSSYGMHWVRQAPGKGLEWVAVIAYDGSNKLYADSVKGRFTISRDNSKNTLYLQMDSLRAEDTAVYYCATSDTKYTLGFAFDIWGQGTMVTVSS
VL: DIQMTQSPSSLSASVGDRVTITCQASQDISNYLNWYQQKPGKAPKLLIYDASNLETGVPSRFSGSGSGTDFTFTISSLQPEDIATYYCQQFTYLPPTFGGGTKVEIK
notes: papain Fab
Regarding B7, the Kd in experiment [1] came out at 0.084 nM; in experiment [2], 1.53 nM.

B8: SA-19-72 Fab (Fab, V domains shown)
VH: QVQLVESGGGVVQPGRSLGLSCAASGFTFSSYAMHWVRQAPGKGLEWVAGILYDGSNKYYADSVKGRFTISRDNSKNTLYLQMNSLRAEDTAVYYCARSNEKYTLGFAFDIWGQGTMVTVSS
VL: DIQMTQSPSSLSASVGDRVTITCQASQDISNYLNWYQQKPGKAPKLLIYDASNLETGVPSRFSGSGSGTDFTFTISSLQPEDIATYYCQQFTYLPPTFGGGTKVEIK
notes: papain Fab
For B8, the Kd in experiment [1] was determined as 0.88 nM; in experiment [2], 4.95 nM.

B9: SA-1 (antibody, V domains shown)
VH: EVQLVESGGGLVQPGRSLRLSCAASGFTFGDYAMHWVRQAPGKGLEWVSGISWNSGSIGYADSVKGRFTISRDNAKNSLYLQMNSLRAEDTALYYCAKDAPYVGLDLWGRGTLVTVSS
VL: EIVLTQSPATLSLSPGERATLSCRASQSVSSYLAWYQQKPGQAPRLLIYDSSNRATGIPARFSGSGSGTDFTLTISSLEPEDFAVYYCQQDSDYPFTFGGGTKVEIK
notes: IgG
For B9, the values for the binding result (in experiment [3]; with Mouse SIRPA D1 Fc; with Human SIRPb D1 Fc) were “no binding (tested: 1 ug/ml)”, “no binding (tested: 100 nM)” and “no binding (tested: 100 nM)”, respectively. Also, in the experiment with Human SIRPA D1 Fc, the Kd amounted to 20 nM. Moreover, the “relative MFI” value stood at 1.47 fold over background in experiment [4] and 0.545 fold over background in experiment [5].

B10: SA-59 (antibody, V domains shown)
VH: QVQLQESGPGLVKPSETLSLTCTVSGGSISSYYWSWIRQPPGKGLEWIGSIYYSGSTNYNPSLKSRVTISVDTSKNQFSLKLSSVTAADTAVYYCARSGGSYSYLDVWGQGTMVTVSS
VL: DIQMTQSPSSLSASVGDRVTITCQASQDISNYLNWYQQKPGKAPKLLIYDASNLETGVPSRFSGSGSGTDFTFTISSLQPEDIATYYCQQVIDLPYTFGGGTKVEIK
notes: IgG
As to B10, the binding result in experiment [3] is given as “no binding (tested: 1 ug/ml)”; with Mouse SIRPA D1 Fc, “no binding (tested: 100 nM)”; with Human SIRPb D1 Fc, “no binding (tested: 100 nM)”. The molecule also came in with an equilibrium dissociation constant (Kd) with Human SIRPA D1 Fc of 23.6 nM. Further, the figures for the “relative MFI” value in experiment [4] and in experiment [5] were 0.63 fold over background and 0.53 fold over background, respectively.

B11: SA-2 (antibody, V domains shown)
VH: QVQLVESGGGVVQPGRSLRLSCAASGFTFSSYGMHWVRQAPGKGLEWVAVISYDGSNKYYADSVKGRFTISRDNSKNTLYLQMNSLRAEDTAVYYCAKDLGGGSGGYATSDYYYGMDVWGQGTTVTVSS
VL: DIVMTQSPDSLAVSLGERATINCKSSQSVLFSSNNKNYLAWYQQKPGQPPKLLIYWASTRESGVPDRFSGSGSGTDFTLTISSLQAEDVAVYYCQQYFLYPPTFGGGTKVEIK
notes: IgG
With B11, the binding result is reported as “no binding (tested: 1 ug/ml)” in experiment [3], “no binding (tested: 100 nM)” with Mouse SIRPA D1 Fc and “no binding (tested: 100 nM)” with Human SIRPb D1 Fc. Binding with Human SIRPA D1 Fc was characterised by a dissociation constant (Kd) of 2.44 nM. For the same molecule, the results for the “relative MFI” value in experiment [4] and in experiment [5] were 98.3 fold over background and 0.527 fold over background, respectively.

B12: SA-60 (antibody, V domains shown)
VH: EVQLVESGGGLVQPGGSLRLSCAASGFTFSSYSMNWVRQAPGKGLEWVSYISSSSSTIYYADSVKGRFTISRDNAKNSLYLQMNSLRAEDTAVYYCARTHKHFDYGMDVWGQGTTVTVSS
VL: EIVLTQSPATLSLSPGERATLSCRASQSVSSYLAWYQQKPGQAPRLLIYDSSNRATGIPARFSGSGSGTDFTLTISSLEPEDFAVYYCQDRSNLPWTFGGGTKVEIK
notes: IgG
Consider B12, for which the binding result is “no binding (tested: 1 ug/ml)” in experiment [3], “no binding (tested: 100 nM)” with Mouse SIRPA D1 Fc and “no binding (tested: 100 nM)” with Human SIRPb D1 Fc. This molecule yielded a Kd with Human SIRPA D1 Fc of 22.2 nM. Also, the “relative MFI” value in experiment [4] was determined as 4.85 fold over background; in experiment [5], 0.539 fold over background.

B13: SA-4 (antibody, V domains shown)
VH: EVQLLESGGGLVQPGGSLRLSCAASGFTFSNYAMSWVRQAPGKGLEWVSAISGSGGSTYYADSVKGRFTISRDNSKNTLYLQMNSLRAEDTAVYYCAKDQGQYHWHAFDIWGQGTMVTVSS
VL: EIVLTQSPATLSLSPGERATLSCRASQSVSSYLAWYQQKPGQAPRLLIYDASNRATGIPARFSGSGSGTDFTLTISSLEPEDFAVYYCQQDSNFPFTFGGGTKVEIK
notes: IgG
Turning to B13, the binding result is on record as “no binding (tested: 1 ug/ml)” in experiment [3], “no binding (tested: 100 nM)” in the experiment with Mouse SIRPA D1 Fc and “no binding (tested: 100 nM)” with Human SIRPb D1 Fc. The molecule further returned a Kd with Human SIRPA D1 Fc of 30.2 nM. The “relative MFI” value in experiment [4] was 0.87 fold over background; in experiment [5], 0.491 fold over background.

B14: SA-3 (antibody, V domains shown)
VH: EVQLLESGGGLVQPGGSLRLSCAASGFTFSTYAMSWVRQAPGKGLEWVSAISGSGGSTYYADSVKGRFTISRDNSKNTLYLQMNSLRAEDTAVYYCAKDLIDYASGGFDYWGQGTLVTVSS
VL: EIVLTQSPATLSLSPGERATLSCRASQSVSSYLAWYQQKPGQAPRLLIYDASNRATGIPARFSGSGSGTDFTLTISSLEPEDFAVYYCQQHDFWPPTFGGGTKVEIK
notes: IgG
For B14, the binding result in experiment [3] is “no binding (tested: 1 ug/ml)”; with Mouse SIRPA D1 Fc it was “no binding (tested: 100 nM)”; in the experiment with Human SIRPb D1 Fc, “no binding (tested: 100 nM)”. Also, in the experiment with Human SIRPA D1 Fc, the affinity, expressed as Kd, was 21.4 nM. In addition, the results for the “relative MFI” value in experiment [4] and in experiment [5] were 0.595 fold over background and 0.518 fold over background, respectively.

B15: SA-62 (antibody, V domains shown)
VH: EVQLVESGGGLVQPGGSLRLSCAASGFTFSSYSMNWVRQAPGKGLEWVSYISSSSSTIYYADSVKGRFTISRDNAKNSLYLQMNSLRAEDTAVYYCARTHKHFDYGMDVWGQGTTVTVSS
VL: DIQMTQSPSSLSASVGDRVTITCQASQDIANYLNWYQQKPGKAPKLLIYDASNLETGVPSRFSGSGSGTDFTFTISSLQPEDIATYYCQQYVNYWTFGGGTKVEIK
notes: IgG
In the case of B15, the binding result was “no binding (tested: 1 ug/ml)” in experiment [3], “no binding (tested: 100 nM)” in the experiment with Mouse SIRPA D1 Fc and “no binding (tested: 100 nM)” in the experiment with Human SIRPb D1 Fc. Besides, the affinity with Human SIRPA D1 Fc, expressed as Kd, was 16.5 nM. The figures for the “relative MFI” value in experiment [4] and in experiment [5] were 7.09 fold over background and 0.557 fold over background, respectively.
